Molecular target: inactive mutant of SARS-CoV-2 main protease M^pro (His41Ala, Cys145Ala) (SARS-CoV-2)
Experiment: native MS

Substance | stoichiometry N (peptide per M^pro dimer)
substrate peptide nsp5/6 (11-mer, P6 to P5') (from UniProt P0DTD1 3564-3574) | < 2
substrate peptide nsp14/15 (11-mer, P6 to P5') (from UniProt P0DTD1 6447-6457) | < 2

— publication PMC11535432
